Key:
C57BL/6 mice = experiment: Enhancing antibody production: serum anti-OVA IgG2a by ELISA; type: in vivo, mouse; conditions: 25 μg GSL-7 and 25 μg OVA through the caudal vein, serum after 14 days, ELISA absorbance at 405 nm
Experimental: Liposome F (in an amount so that 25 μg of GSL-7 and 25 μg of OVA were contained) was administered to C57BL/6 mice (8- to 10-week-old females) through the caudal vein. After 14 days, blood was collected and then serum anti-OVA antibody levels were measured by ELISA. An anti-OVA antibody titer (IgG2a) was assayed by adding the gradually diluted serum to a 96-well plate coated with OVA. Alkaline phosphatase (AP)-labeled anti-mouse IgG2a antibodies were used as detection antibodies. The color was developed using paranitrophenylphosphate (p-nitrophenyl phosphate) as a substrate. The reaction was terminated with 3N NaOH, the absorbance at 405 nm was measured using a microplate reader.

[1] = system: splenocytes stimulated with OVA; experiment: Antigen-specific IFN-γ production from splenocytes of treated mice; type: in vivo, mouse; conditions: 25 μg GSL-7 i.v.; spleen after 1 week; splenocytes stimulated with OVA 1 mg/ml, 96 hours
Experimental: Liposome F (prepared in an amount so that 25 μg of GSL-7 was contained) prepared as in Example 14 was administered to C57BL/6 mice (8- to 10-week-old males) through the caudal vein. After 1 week, the spleen was excised. Splenocytes (5×10^5) were stimulated with OVA (1 mg/ml). After 96 hours, IFN-γ levels in the culture supernatants were measured. IFN-γ levels were measured by sandwich ELISA using purified anti-IFN-γ antibodies (R4-6A2) as capture antibodies and biotin-labeled anti-IFN-γ antibodies (AN-18) as detection antibodies. In the subsequent reaction, alkaline phosphatase-labeled streptavidin was caused to bind to biotin-labeled antibodies. The color was developed using p-nitrophenyl phosphate as a substrate. The absorbance at a wavelength of 405 nm was measured using a microplate reader (MICROPLATE READER Model 550). IFN-γ concentrations in test samples were calculated based on the standard curve of IFN-γ in the recombinant mice.

B1: OVA: ovalbumin (OVA) (SIGMA), antigen (protein, UniProt P01012 2-386, looked up)
Ovalbumin: GSIGAASMEFCFDVFKELKVHHANENIFYCPIAIMSALAMVYLGAKDSTRTQINKVVRFDKLPGFGDSIEAQCGTSVNVHSSLRDILNQITKPNDVYSFSLASRLYAEERYPILPEYLQCVKELYRGGLEPINFQTAADQARELINSWVESQTNGIIRNVLQPSSVDSQTAMVLVNAIVFKGLWEKAFKDEDTQAMPFRVTEQESKPVQMMYQIGLFRVASMASEKMKILELPFASGTMSMLVLLPDEVSGLEQLESIINFEKLTEWTSSNVMEERKIKVYLPRMKMEEKYNLTSVLMAMGITDVFSSSANLSGISSAESLKISQAVHAAHAEINEAGREVVGSAEAGVDAASVSEEFRADHPFLFCIKHIATNAVLFFGRCVSP
For B1, the “Anti-OVA IgG2a” value (C57BL/6 mice) was 0.049 ± 0.018 and the IFN-γ [1] was 4.79 ± 0.45 ng/mL.

Source: patent publication US20110104248A1, “LIPOSOMES AND IMMUNOPOTENTIATING COMPOSITIONS CONTAINING THE SAME” (FOODCHEMIFA CO., LTD., priority 2007, published 2011)
